The target in the test is actin filaments (F-actin) assembled in vitro from DyLight-labeled actin and biotinylated actin (UniProt P68135). Nature of the test: TIRF microscopy of cofilin-EGFP on single actin filaments.

In the case of “cofilin-EGFP (recombinant mouse cofilin tagged on its C terminus) (from UniProt P18760 1-166) (natural protein)”, the average density of cofilin on stuck F-actin against that on mDia1(−) F-actin amounted to 35 % lower.
